Test results taken from US20240101687A1 (ABL BIO, published 2024).

How the values were obtained:
[1] = molecular target: T1, mouse IGF1R on bEND.3 brain endothelial cells (mouse, UniProt Q60751 31-1373); experiment: FACS on bEND.3 mouse brain endothelial cells; MFI of secondary Ab only 3.20
T1 construct: whole, on cells; also called IGF1R expressed on the surface of brain endothelial cells

[2] = molecular target: T2, human IGF1R extracellular domain, His-tagged (human, UniProt P08069 31-932); experiment: SPR (Biacore), human IGF1R ECD-His captured by anti-His antibody on CM4 chip, 1564-IgG as analyte, bivalent analyte fit, 25 C; lower panel
T2 construct: Bought (R&D Systems 391-GR or Sino Biological 10164-H08H); also called recombinant IGF1R; ECD of IGF1R
Procedure: (§1) The anti-his antibody against the His tag bound to the human IGF1R ECD as an antigen was diluted to 20 μg/ml in acetate pH4.0 buffer, and then immobilized in the reference/analytic channel of the CM4 chip to 10,000 RU as a target RU according to the amine coupling method. During capture, PBS was used as a running buffer, and the flow rate was maintained at 30 μL/min. During association/dissociation, the flow rate was 40 μL/min, and PBS was used as the running buffer. The association/dissociation was 5 minutes and 20 minutes, respectively.

[3] = molecular target: T2, human IGF1R extracellular domain, …; experiment: SPR (Biacore T200), His-tagged human IGF1R ECD captured by anti-His antibody on CM4 chip, bivalent model; 1564 IgG
Procedure: as §1

[4] = molecular target: T2, human IGF1R extracellular domain, …; experiment: ELISA, IGF1R coated, anti-human Fab-HRP
Procedure: To this end, firstly, human, monkey, mouse and rat IGF1R antigens were diluted to 1 ug/ml, added to each well 100 ul, and reacted at 4° C. for 15 hours to be coated on the bottom of the plate. After removing the supernatant, 200 ul of PBS buffer containing 3% BSA was treated in each well to block non-specific binding. The anti-IGF1R antibodies were diluted by 5 times in PBSB (BSA 3% in PBS) at a maximum concentration of 400 nM, treated in each well, and reacted at 37° C. for 1 hour. Then, after washing with PBS buffer 5 times, the anti-human Fab HRP recognizing the Fab portion of the bound antibody was diluted 1:20000 was treated at 100 ul of each well, and reacted at 37° C. for 1 hour. The product was washed 5 times with PBS buffer and the color development was performed with TMB (Tetramethylbenzidine, Sigma, T0440) according to the manufacturer's method. […] When many samples are used in the ELISA analysis, the plates were divided into two.

[5] = molecular target: T2, human IGF1R extracellular domain, …; experiment: SPR (Biacore), human IGF1R ECD-His captured by anti-His antibody on CM4 chip, 1564-IgG as analyte, bivalent analyte fit, 25 C; upper panel
Procedure: as §1

[6] = molecular target: T3, human alpha-synuclein aggregates (fibrils) (human, UniProt P37840 1-140); experiment: ELISA, alpha-synuclein aggregates coated, antibody titrated up to 400 nM; C of the 4-P fit
Procedure: (§2) The alpha-synuclein aggregates were coated on a 96-well plate at a concentration of 1 ug/ml for 18 hours, and after washing, was treated with each antibody by diluting by 5 times from 400 nM. The bound antibodies were bound to anti-human Fc-HRP and then performed by color development with TMB solution, to measure the degree of binding of the antibody.

[7] = molecular target: T3, human alpha-synuclein aggregates …; experiment: SPR (BIAcore), antibody captured on Protein A chip, alpha-synuclein fibril (sample aSyn180330) as analyte, 1:1 binding fit, 25 C
Procedure: (§3) The running buffer, analyte dilution, and the sample dilution buffer were HBS-EP. […] For the capture, the monomer was for RU of 800 (theoretical), and a fibril was for RU of 100 (theoretical). The capture phase was performed at contact time of 60 seconds, a flow rate of 30 μl/min, and a stabilization period of 180 seconds. The association phase was performed at the association time of 120 seconds and the flow rate was 30 μl/min. The dissociation phase was performed at the dissociation time of 360 seconds and the flow rate of 30 l/min. The regeneration phase was performed twice time at the regeneration time of 240 seconds (primary) and 60 seconds (secondary) and a flow rate of 30 μl/min. The fitting was carried out suing 1:1 binding model, and the evaluation software was BIACore T200 Evaluation software (GE healthcare).

[8] = molecular target: T3, human alpha-synuclein aggregates …; experiment: ELISA, alpha-synuclein aggregates coated at 1 ug/ml, antibody titrated 5-fold from 400 nM, anti-human Fc-HRP; C of the 4-P fit
Procedure: as §2

Aβ42 (Monomer) = molecular target: T4, Aβ42 (Monomer) (human, UniProt P05067); experiment: dot blot, monomer and fibril of each protein spotted in rising amounts, antibody as probe
T4 construct: recombinant, monomer (not aggregated); m20 is the aggregated form; also called amyloid beta1-42 monomer
Procedure: (§4) The specific binding ability of the antibodies to the alpha-synuclein aggregate was analyzed by reacting with a blot.

[9] = molecular target: T5, amyloid beta1-42 aggregates (UniProt P05067 672-713); experiment: as above
T5 construct: domain: amyloid beta1-42; aggregates prepared by Prof; Seung-jae Lee; also called amyloid beta1-42-derived aggregates
Procedure: as §4

[10] = molecular target: T3, human alpha-synuclein aggregates …; experiment: SPR (BIAcore), antibody captured on Protein A chip, alpha-Syn fibril as analyte, 1:1 binding fit, 25 C
[11] = molecular target: T1, mouse IGF1R on bEND.3 brain endothelial …; experiment: FACS on bEND.3 mouse brain endothelial cells
[12] = molecular target: T2, human IGF1R extracellular domain, …; experiment: ELISA on coated IGF1R, antibody titrated up to 400 nM; C of the 4-P fit, D 2.68; curve at baseline up to about 3 nM, about 0.8 at 80 nM and 1.75 at 400 nM, no plateau in the data; the text says the single antibody did not bind
Tau protein aggregates = molecular target: T6, Tau protein aggregates (UniProt P10636-8 1-441, limits assumed); experiment: dot blot
T6 construct: aggregates prepared by Prof; Seung-jae Lee; also called tau-derived aggregates

[13] = molecular target: T3, human alpha-synuclein aggregates …; experiment: BIAcore as in Example 4-3, α-syn aggregates
Procedure: as §3

human beta-synuclein = molecular target: T7, human beta-synuclein (human, UniProt Q16143 1-134, limits assumed); experiment: ELISA, human beta-synuclein coated at 100 ng/ml
T7 construct: bought
Source text: (§5) For the positive control, RP-bound goat anti-rabbit was used as a detection antibody.

human gamma-synuclein = molecular target: T8, human gamma-synuclein (human, UniProt O76070 1-127, limits assumed); experiment: ELISA, human gamma-synuclein coated at 100 ng/ml
T8 construct: bought
Source text: as §5

[14] = molecular target: T3, human alpha-synuclein aggregates …; experiment: sandwich ELISA, antibody coated 0.04-400 nM, fibril aggregates 2000 ng/ml
Procedure: Specifically, each antibody was diluted at 1/10 ratio of concentrations 0.04 to 400 nM and was coated on a 96-well plate, and then each well was treated with synuclein fibril aggregates were treated at 2000 ng/ml. After washing with 1×PBS, streptavidin conjugated with HRP and secondary antibody conjugate with biotin was treated and then reacted with TMB as a substrate. The absorbance was measured.

[15] = molecular target: T2, human IGF1R extracellular domain, …; experiment: ELISA on coated IGF1R, antibody titrated up to 400 nM; C of the 4-P fit, D 0.945; curve at baseline up to 16 nM, about 0.2 at 80 nM and 0.75 at 400 nM, no plateau in the data; the text says the single antibody did not bind

T1 sequence (Q60751 31-1373): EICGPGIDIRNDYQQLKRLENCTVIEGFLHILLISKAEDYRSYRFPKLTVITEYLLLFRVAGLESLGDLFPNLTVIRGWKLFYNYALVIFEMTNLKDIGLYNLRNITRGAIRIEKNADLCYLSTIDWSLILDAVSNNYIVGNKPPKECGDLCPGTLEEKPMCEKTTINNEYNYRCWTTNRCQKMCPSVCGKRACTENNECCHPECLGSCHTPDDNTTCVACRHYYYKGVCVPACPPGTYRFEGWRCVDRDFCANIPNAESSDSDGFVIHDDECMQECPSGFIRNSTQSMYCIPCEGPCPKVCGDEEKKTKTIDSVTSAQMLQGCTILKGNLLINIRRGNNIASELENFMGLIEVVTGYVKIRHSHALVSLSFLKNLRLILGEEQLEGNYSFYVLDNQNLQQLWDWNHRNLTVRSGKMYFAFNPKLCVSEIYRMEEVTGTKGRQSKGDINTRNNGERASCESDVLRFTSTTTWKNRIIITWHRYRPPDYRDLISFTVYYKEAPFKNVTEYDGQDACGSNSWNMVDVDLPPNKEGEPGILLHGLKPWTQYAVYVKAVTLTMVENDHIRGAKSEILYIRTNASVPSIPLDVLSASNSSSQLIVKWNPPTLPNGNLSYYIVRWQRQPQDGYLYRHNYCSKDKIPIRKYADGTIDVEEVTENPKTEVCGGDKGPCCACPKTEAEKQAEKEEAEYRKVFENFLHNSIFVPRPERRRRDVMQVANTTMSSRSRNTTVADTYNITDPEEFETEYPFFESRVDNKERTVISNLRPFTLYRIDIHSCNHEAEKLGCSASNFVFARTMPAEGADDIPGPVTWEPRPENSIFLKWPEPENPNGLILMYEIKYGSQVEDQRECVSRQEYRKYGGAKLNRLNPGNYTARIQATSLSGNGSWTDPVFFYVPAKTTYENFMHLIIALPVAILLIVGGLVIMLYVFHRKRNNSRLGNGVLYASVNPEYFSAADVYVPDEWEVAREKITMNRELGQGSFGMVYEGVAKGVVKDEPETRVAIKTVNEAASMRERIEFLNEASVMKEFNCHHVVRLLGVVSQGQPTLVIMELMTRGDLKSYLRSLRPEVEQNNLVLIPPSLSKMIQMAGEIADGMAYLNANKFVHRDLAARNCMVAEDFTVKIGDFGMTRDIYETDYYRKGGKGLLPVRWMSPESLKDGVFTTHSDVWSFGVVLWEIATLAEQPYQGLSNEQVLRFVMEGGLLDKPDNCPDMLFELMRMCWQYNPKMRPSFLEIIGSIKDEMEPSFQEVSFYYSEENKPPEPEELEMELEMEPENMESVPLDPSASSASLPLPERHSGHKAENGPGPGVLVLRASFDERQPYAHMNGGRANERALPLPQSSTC
T7 sequence (Q16143 whole entry): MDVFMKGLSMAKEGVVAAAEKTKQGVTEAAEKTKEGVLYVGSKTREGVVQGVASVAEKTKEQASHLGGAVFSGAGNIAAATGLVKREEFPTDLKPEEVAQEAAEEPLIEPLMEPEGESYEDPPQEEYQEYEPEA
T8 sequence (O76070 whole entry): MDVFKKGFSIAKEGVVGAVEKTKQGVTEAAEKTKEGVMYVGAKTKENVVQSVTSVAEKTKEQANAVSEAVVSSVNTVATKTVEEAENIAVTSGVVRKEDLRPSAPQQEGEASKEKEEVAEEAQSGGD
T6 sequence (P10636 other isoform, or with tags, fused parts or gaps limits assumed): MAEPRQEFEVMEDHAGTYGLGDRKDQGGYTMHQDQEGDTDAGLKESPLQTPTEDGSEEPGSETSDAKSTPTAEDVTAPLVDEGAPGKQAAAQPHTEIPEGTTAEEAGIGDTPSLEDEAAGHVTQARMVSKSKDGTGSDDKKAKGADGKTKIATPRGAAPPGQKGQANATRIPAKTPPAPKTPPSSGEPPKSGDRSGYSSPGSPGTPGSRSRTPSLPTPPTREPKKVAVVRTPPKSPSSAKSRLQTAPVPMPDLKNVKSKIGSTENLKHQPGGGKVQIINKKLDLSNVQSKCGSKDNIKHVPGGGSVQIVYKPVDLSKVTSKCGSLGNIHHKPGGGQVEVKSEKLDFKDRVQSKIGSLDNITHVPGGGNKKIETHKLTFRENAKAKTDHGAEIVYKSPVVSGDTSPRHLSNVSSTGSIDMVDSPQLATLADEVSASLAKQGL

B1: 1564 IgG (antibody, V domains shown)
VH: EVQLLESGGGLVQPGGSLRLSCAASGFTFSSYDMSWVRQAPGKGLEWVSAISYDNGNTYYADSVKGRFTISRDNSKNTLYLQMNSLRAEDTAVYYCAKGVLTTLMNWFDYWGQGTLVTVSS
VL: QSVLTQPPSASGTPGQRVTISCTGSSSNIGSNDVSWYQQLPGTAPKLLIYANSNRPSGVSDRFSGSKSGTSASLAISGLRSEDEADYYCGAWDDSLNGYVFGGGTKLTVLR
B1 showed an MFI [1] of 7.55, a koff [2] of 2.53e-06 s⁻¹ and a Kd [3] of 2.53 nM. It also gave an EC50 [4] of 0.0823 nM, a koff [5] of 2.41e-06 s⁻¹ and a kon [5] of 902 M⁻¹ s⁻¹.

B2: chimeric 11F11 antibody (antibody, V domains shown)
VH: EVQLQESGGGLVQPGGSLRLSCATSGFTFSDFYMEWVRQPPGKRLEWIAASRNKANDYTTEYSASVKGRFIVSRDTSQSILYLQMNALRAEDTAIYYCARDAHGKPFAYWGQGTLVTVSA
VL: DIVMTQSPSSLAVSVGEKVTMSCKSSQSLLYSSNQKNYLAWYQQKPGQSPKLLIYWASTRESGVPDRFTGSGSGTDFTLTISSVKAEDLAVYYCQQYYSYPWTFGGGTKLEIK
notes: also called Ch11F11; ch11F11
B2 gave an EC50 [6] of 1.27 nM, an MFI [1] of 3.26 and a koff [7] of 0.000563 s⁻¹. The kon [7] was 609000 M⁻¹ s⁻¹, the EC50 [8] was 33.8 nM and the binding result (Aβ42 (Monomer)) was “no binding”. For the same binder, the binding result [9] was “no binding”, the koff [10] was 8.88e-05 s⁻¹ and the kon [10] was 193000 M⁻¹ s⁻¹. The binding result [11] was “no binding”, the EC50 [12] was 201 nM and the binding result (Tau protein aggregates) was “no binding”. For the same binder, the Kd [13] was 0.0247 nM, the binding result (human beta-synuclein) was “no binding” and the binding result (human gamma-synuclein) was “no binding”. It also gave an EC50 [14] of 12.5 nM and an EC50 [15] of 196 nM.
